In patent US20140087995A1 (published 2014):
Numbered stars: 1 amine (or outer) side, 2 acyl side, 3 side chain; on linkers, the order of the positions; unused ones are H or OH. Bridge positions count the residues as written; N and C are the ends. Side chains are listed from the residue outwards. Ends that are not written are not given here. * marks the point of attachment. C20 diacid = O=C(O)CCCCCCCCCCCCCCCCCCC(=O)*; γGlu = O=C(O)[C@H](CCC(=O)[*:2])N[*:1]

T1: rat calcitonin receptor (rat, UniProt P32214 25-516)
T1 construct: whole, on cells; Membranes of transiently transfected BHK tk'ts 13 cells; also called rCTR; rat calcitonin (a) receptor
T1 sequence (looked up): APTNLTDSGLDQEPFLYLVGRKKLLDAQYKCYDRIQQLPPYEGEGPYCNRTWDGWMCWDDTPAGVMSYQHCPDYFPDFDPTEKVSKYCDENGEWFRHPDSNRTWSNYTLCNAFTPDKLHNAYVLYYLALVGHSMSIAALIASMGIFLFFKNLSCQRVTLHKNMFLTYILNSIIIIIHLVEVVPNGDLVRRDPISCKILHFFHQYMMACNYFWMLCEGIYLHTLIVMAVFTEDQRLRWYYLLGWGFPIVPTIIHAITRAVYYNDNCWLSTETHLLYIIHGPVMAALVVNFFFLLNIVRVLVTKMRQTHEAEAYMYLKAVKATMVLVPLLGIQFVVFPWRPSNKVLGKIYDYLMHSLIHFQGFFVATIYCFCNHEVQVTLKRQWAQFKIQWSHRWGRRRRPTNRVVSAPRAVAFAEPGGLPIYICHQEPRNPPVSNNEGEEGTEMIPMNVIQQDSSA

T2: rat amylin receptor (rat calcitonin receptor + rat RAMP 3) (rat, UniProt P32214 25-516; Q9JJ73 23-147)
T2 construct: whole, on cells; Membranes of transiently transfected BHK tk'ts 13 cells; also called rAmylin-R; rat amylin 3(a) receptor
T2 sequence (looked up) 1: T1 sequence (looked up)
T2 sequence (looked up) 2: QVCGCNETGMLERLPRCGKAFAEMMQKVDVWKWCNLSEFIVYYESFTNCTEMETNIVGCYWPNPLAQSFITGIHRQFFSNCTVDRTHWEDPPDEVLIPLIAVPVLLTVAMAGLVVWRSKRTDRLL

T3: human calcitonin receptor (human, UniProt P30988 25-474)
T3 construct: whole, on cells; Membranes of stably transfected cells; also called hCTR; hCT
T3 sequence (looked up): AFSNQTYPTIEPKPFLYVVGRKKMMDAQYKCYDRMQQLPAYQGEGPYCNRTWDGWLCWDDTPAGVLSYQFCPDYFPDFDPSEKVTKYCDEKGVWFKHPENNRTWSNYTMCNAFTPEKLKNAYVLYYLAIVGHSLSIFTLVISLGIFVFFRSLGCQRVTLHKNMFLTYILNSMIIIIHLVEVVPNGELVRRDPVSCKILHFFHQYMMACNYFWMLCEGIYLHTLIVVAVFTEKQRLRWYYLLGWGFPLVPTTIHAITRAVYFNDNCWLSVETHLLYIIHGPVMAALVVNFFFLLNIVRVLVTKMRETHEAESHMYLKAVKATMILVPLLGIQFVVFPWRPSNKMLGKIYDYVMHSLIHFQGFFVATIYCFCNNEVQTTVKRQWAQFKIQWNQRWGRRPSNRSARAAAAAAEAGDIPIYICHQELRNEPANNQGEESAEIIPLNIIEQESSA

B1: N^ε1-[(4S)-4-carboxy-4-(19-carboxynonadecanoylamino)butanoyl]-[Glu14,Arg17,Pro21,Pro27,Pro34,Arg35]-h-amylin (peptide)
peptide: K([γGlu-C20 diacid])CNTATCATQRLAEFLRHSSPNFGAIPSSTNVGPRTY-NH2
modifications: disulfide 2-7; N-terminus assumed
SMILES: CC[C@H](C)[C@H](NC(=O)[C@H](C)NC(=O)CNC(=O)[C@H](Cc1ccccc1)NC(=O)[C@H](CC(N)=O)NC(=O)[C@@H]1CCCN1C(=O)[C@H](CO)NC(=O)[C@H](CO)NC(=O)[C@H](Cc1c[nH]cn1)NC(=O)[C@H](CCCNC(=N)N)NC(=O)[C@H](CC(C)C)NC(=O)[C@H](Cc1ccccc1)NC(=O)[C@H](CCC(=O)O)NC(=O)[C@H](C)NC(=O)[C@H](CC(C)C)NC(=O)[C@H](CCCNC(=N)N)NC(=O)[C@H](CCC(N)=O)NC(=O)[C@@H](NC(=O)[C@H](C)NC(=O)[C@@H]1CSSC[C@H](NC(=O)[C@@H](N)CCCCNC(=O)CC[C@H](NC(=O)CCCCCCCCCCCCCCCCCCC(=O)O)C(=O)O)C(=O)N[C@@H](CC(N)=O)C(=O)N[C@@H]([C@@H](C)O)C(=O)N[C@@H](C)C(=O)N[C@@H]([C@@H](C)O)C(=O)N1)[C@@H](C)O)C(=O)N1CCC[C@H]1C(=O)N[C@@H](CO)C(=O)N[C@@H](CO)C(=O)N[C@H](C(=O)N[C@@H](CC(N)=O)C(=O)N[C@H](C(=O)NCC(=O)N1CCC[C@H]1C(=O)N[C@@H](CCCNC(=N)N)C(=O)N[C@H](C(=O)N[C@@H](Cc1ccc(O)cc1)C(N)=O)[C@@H](C)O)C(C)C)[C@@H](C)O
notes: Synthetic acylated analogue of human amylin
B2: N^ε1-[(4S)-4-carboxy-4-(19-carboxynonadecanoylamino)butanoyl]-[His14,Arg17,Pro21,Pro27,Pro31,Pro34]-h-amylin (peptide)
peptide: K([γGlu-C20 diacid])CNTATCATQRLAHFLRHSSPNFGAIPSSTPVGPNTY-NH2
modifications: disulfide 2-7; N-terminus assumed
SMILES: CC[C@H](C)[C@H](NC(=O)[C@H](C)NC(=O)CNC(=O)[C@H](Cc1ccccc1)NC(=O)[C@H](CC(N)=O)NC(=O)[C@@H]1CCCN1C(=O)[C@H](CO)NC(=O)[C@H](CO)NC(=O)[C@H](Cc1c[nH]cn1)NC(=O)[C@H](CCCNC(=N)N)NC(=O)[C@H](CC(C)C)NC(=O)[C@H](Cc1ccccc1)NC(=O)[C@H](Cc1c[nH]cn1)NC(=O)[C@H](C)NC(=O)[C@H](CC(C)C)NC(=O)[C@H](CCCNC(=N)N)NC(=O)[C@H](CCC(N)=O)NC(=O)[C@@H](NC(=O)[C@H](C)NC(=O)[C@@H]1CSSC[C@H](NC(=O)[C@@H](N)CCCCNC(=O)CC[C@H](NC(=O)CCCCCCCCCCCCCCCCCCC(=O)O)C(=O)O)C(=O)N[C@@H](CC(N)=O)C(=O)N[C@@H]([C@@H](C)O)C(=O)N[C@@H](C)C(=O)N[C@@H]([C@@H](C)O)C(=O)N1)[C@@H](C)O)C(=O)N1CCC[C@H]1C(=O)N[C@@H](CO)C(=O)N[C@@H](CO)C(=O)N[C@H](C(=O)N1CCC[C@H]1C(=O)N[C@H](C(=O)NCC(=O)N1CCC[C@H]1C(=O)N[C@@H](CC(N)=O)C(=O)N[C@H](C(=O)N[C@@H](Cc1ccc(O)cc1)C(N)=O)[C@@H](C)O)C(C)C)[C@@H](C)O
notes: as for B1
B3: N^ε1-[(4S)-4-carboxy-4-[[(4S)-4-carboxy-4-(19-carboxynonadecanoylamino)butanoyl]amino]butanoyl]-[Asp14,Arg17,Pro21,Pro27,Pro34,Glu35]-h-amylin (peptide)
peptide: K([γGlu-γGlu-C20 diacid])CNTATCATQRLADFLRHSSPNFGAIPSSTNVGPETY-NH2
modifications: disulfide 2-7
notes: as for B1
B4: N^ε1-[(4S)-4-carboxy-4-[[(4S)-4-carboxy-4-(19-carboxynonadecanoylamino)butanoyl]amino]butanoyl]-[Glu14,Arg17,Pro21,Pro27,Arg34,Glu35]-h-amylin (peptide)
peptide: K([γGlu-γGlu-C20 diacid])CNTATCATQRLAEFLRHSSPNFGAIPSSTNVGRETY-NH2
modifications: disulfide 2-7; N-terminus assumed
SMILES: CC[C@H](C)[C@H](NC(=O)[C@H](C)NC(=O)CNC(=O)[C@H](Cc1ccccc1)NC(=O)[C@H](CC(N)=O)NC(=O)[C@@H]1CCCN1C(=O)[C@H](CO)NC(=O)[C@H](CO)NC(=O)[C@H](Cc1c[nH]cn1)NC(=O)[C@H](CCCNC(=N)N)NC(=O)[C@H](CC(C)C)NC(=O)[C@H](Cc1ccccc1)NC(=O)[C@H](CCC(=O)O)NC(=O)[C@H](C)NC(=O)[C@H](CC(C)C)NC(=O)[C@H](CCCNC(=N)N)NC(=O)[C@H](CCC(N)=O)NC(=O)[C@@H](NC(=O)[C@H](C)NC(=O)[C@@H]1CSSC[C@H](NC(=O)[C@@H](N)CCCCNC(=O)CC[C@H](NC(=O)CC[C@H](NC(=O)CCCCCCCCCCCCCCCCCCC(=O)O)C(=O)O)C(=O)O)C(=O)N[C@@H](CC(N)=O)C(=O)N[C@@H]([C@@H](C)O)C(=O)N[C@@H](C)C(=O)N[C@@H]([C@@H](C)O)C(=O)N1)[C@@H](C)O)C(=O)N1CCC[C@H]1C(=O)N[C@@H](CO)C(=O)N[C@@H](CO)C(=O)N[C@H](C(=O)N[C@@H](CC(N)=O)C(=O)N[C@H](C(=O)NCC(=O)N[C@@H](CCCNC(=N)N)C(=O)N[C@@H](CCC(=O)O)C(=O)N[C@H](C(=O)N[C@@H](Cc1ccc(O)cc1)C(N)=O)[C@@H](C)O)C(C)C)[C@@H](C)O
notes: as for B1
B5: N^ε1-[(4S)-4-carboxy-4-(19-carboxynonadecanoylamino)butanoyl]-[Glu14,Arg17,Pro21,Pro27,Pro34,His35]-h-amylin (peptide)
peptide: K([γGlu-C20 diacid])CNTATCATQRLAEFLRHSSPNFGAIPSSTNVGPHTY-NH2
modifications: disulfide 2-7
notes: as for B1
B6: N^ε1-[(4S)-4-carboxy-4-[[(4S)-4-carboxy-4-(19-carboxynonadecanoylamino)butanoyl]amino]butanoyl]-[Asp14,Arg17,Pro21,Pro27,Pro34,Arg35]-h-amylin (peptide)
peptide: K([γGlu-γGlu-C20 diacid])CNTATCATQRLADFLRHSSPNFGAIPSSTNVGPRTY-NH2
modifications: disulfide 2-7
notes: Synthetic acylated analogue of human amylin; also called compound 130
B7: N^ε1-[(4S)-4-carboxy-4-[[(4S)-4-carboxy-4-(19-carboxynonadecanoylamino)butanoyl]amino]butanoyl]-[Arg17,Pro21,Pro27,Pro31,Pro34,Arg35]-h-amylin (peptide)
peptide: K([γGlu-γGlu-C20 diacid])CNTATCATQRLANFLRHSSPNFGAIPSSTPVGPRTY-NH2
modifications: disulfide 2-7; N-terminus assumed
SMILES: CC[C@H](C)[C@H](NC(=O)[C@H](C)NC(=O)CNC(=O)[C@H](Cc1ccccc1)NC(=O)[C@H](CC(N)=O)NC(=O)[C@@H]1CCCN1C(=O)[C@H](CO)NC(=O)[C@H](CO)NC(=O)[C@H](Cc1c[nH]cn1)NC(=O)[C@H](CCCNC(=N)N)NC(=O)[C@H](CC(C)C)NC(=O)[C@H](Cc1ccccc1)NC(=O)[C@H](CC(N)=O)NC(=O)[C@H](C)NC(=O)[C@H](CC(C)C)NC(=O)[C@H](CCCNC(=N)N)NC(=O)[C@H](CCC(N)=O)NC(=O)[C@@H](NC(=O)[C@H](C)NC(=O)[C@@H]1CSSC[C@H](NC(=O)[C@@H](N)CCCCNC(=O)CC[C@H](NC(=O)CC[C@H](NC(=O)CCCCCCCCCCCCCCCCCCC(=O)O)C(=O)O)C(=O)O)C(=O)N[C@@H](CC(N)=O)C(=O)N[C@@H]([C@@H](C)O)C(=O)N[C@@H](C)C(=O)N[C@@H]([C@@H](C)O)C(=O)N1)[C@@H](C)O)C(=O)N1CCC[C@H]1C(=O)N[C@@H](CO)C(=O)N[C@@H](CO)C(=O)N[C@H](C(=O)N1CCC[C@H]1C(=O)N[C@H](C(=O)NCC(=O)N1CCC[C@H]1C(=O)N[C@@H](CCCNC(=N)N)C(=O)N[C@H](C(=O)N[C@@H](Cc1ccc(O)cc1)C(N)=O)[C@@H](C)O)C(C)C)[C@@H](C)O
notes: as for B1

These binders were tested against T1, rat calcitonin receptor (assay: ratio of IC50 on rat calcitonin receptor to IC50 on rat amylin receptor (reference m40)).
In the case of B1, the “Ratio rCT/rAmylin binding” value is reported as 45.5. With B2 the “Ratio rCT/rAmylin binding” value was 72.4. In the case of B3, the “Ratio rCT/rAmylin binding” value is reported as 98.5. In the case of B4, the “Ratio rCT/rAmylin binding” value is reported as 158. For B5, the “Ratio rCT/rAmylin binding” value was 52.2. B6 was tested, and the “Ratio rCT/rAmylin binding” value was 240. In the case of B7, the “Ratio rCT/rAmylin binding” value is reported as 137.

These binders were tested against T2, rat amylin receptor (rat calcitonin …) (assay: SPA competition with 125I-rat amylin on membranes of BHK tk'ts 13 cells with rat calcitonin receptor + rat RAMP3 (Assay VI)).
Work on B1 yielded an IC50 of 0.339 nM. In the case of B2, the IC50 is reported as 0.125 nM. With B3 the IC50 was 0.324 nM. Binder B4 has an IC50 of 2.86 nM. Binder B5 has an IC50 of 0.104 nM. B6 showed an IC50 of 0.93 nM. In the case of B7, the IC50 is reported as 0.381 nM.

Each binder was assayed against T1, rat calcitonin receptor (assay: SPA competition with 125I-calcitonin on membranes of BHK tk'ts 13 cells with rat calcitonin receptor (Assay VIII)).
In the case of B1, the IC50 is reported as 15.4 nM. B2 gave an IC50 of 9.05 nM. With B3 the IC50 was 31.9 nM. For B4, the IC50 was 452 nM. In the case of B5, the IC50 is reported as 5.43 nM. B6 gave an IC50 of 223 nM. In the case of B7, the IC50 is reported as 52.4 nM.

Each binder was assayed against T3, human calcitonin receptor (assay: ratio of IC50 on human calcitonin receptor to IC50 on human amylin receptor (reference m42), SPA competition).
In short: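 Competition binding by SPA with cell membranes (35 ng/μL) and SPA beads in 50 mM Hepes pH 7.4 with 1 mM CaCl2, 5 mM MgCl2, 0.1% OA and 0.02% Tween20. Incubated 120 min at 25 °C with shaking, then counted.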
B1 was tested, and the “Ratio hCT/hAmylin binding” value was 38.6. In the case of B2, the “Ratio hCT/hAmylin binding” value is reported as 24.8. In the case of B3, the “Ratio hCT/hAmylin binding” value is reported as 49.8. In the case of B4, the “Ratio hCT/hAmylin binding” value is reported as 14.7. B5 was tested, and the “Ratio hCT/hAmylin binding” value was 21.2. For B6, the “Ratio hCT/hAmylin binding” value was 280. With B7 the “Ratio hCT/hAmylin binding” value was 48.6.
